Source: US20260098092A1 (CHULALONGKORN UNIVERSITY, published 2026)
Positions count from the first letter of the chain named. Each block holds one binder with its values, some of them ahead of it.

Legend:
[1] = molecular target: human PD-1 on PD-1-expressing Jurkat effector cells (human, UniProt Q15116 25-288); assay: cell-based or functional assay
[2] = molecular target: T1, recombinant human PD-1 His-tag protein (R&D Systems) (human, UniProt Q15116 25-167); assay: ELISA, PD-1 His-tag coated on plate, anti-mouse IgG Fc-HRP detection
T1 construct: Bought reagent; Used for the ELISA (coated) and for SPR (analyte); also called PD-1 protein; human PD-1 protein; not shown: His-tag
Protocol: ELISA technique was used to select hybridoma mini-pools producing anti-PD-1 antibodies using the following procedure. MaxiSorp ELISA plate was coated with PD-1 His-tag (R&D System) in PBS buffer (10 ng/100 μL/well) at 4° C. overnight. […] The culture supernatant of each mini-pool (100 μL) was added to the plate then incubated for 1 hour at 37° C. After washing, the plate was probed with goat anti-mouse IgG Fcγ-HRP (Jackson Immuno Research) diluted 1:8,000 in PBST (100 μL/well) and incubated for 1 hour at 37° C. […] 1 M H₂SO₄ (50 μL/well) was used to stop the reaction. […] Hybridoma mini-pools with absorbance values of more than 1.0 were selected for further screening.
The purified antibodies were 2-fold serial diluted for eleven rounds starting from 2 μg/mL until reaching the final concentration of 0.977 ng/mL. The PD-1 binding activity of purified antibodies was evaluated by ELISA following the procedure mentioned in Example 2. The half-maximal effective concentration (EC₅₀) was calculated using GraphPad Prism® software.

[3] = molecular target: T1, recombinant human PD-1 His-tag protein …; assay: binding kinetics (method not described at the table; presumably SPR as in Example 8)
[4] = molecular target: T1, recombinant human PD-1 His-tag protein …; assay: SPR, Biacore T200, as in Example 8 (antibody on Protein G chip, PD-1 His-tag injected)
Protocol: The Biacore T200 instrument, equipped with a Protein G sensor chip (GE Healthcare), was used to determine the binding kinetics between chimeric anti-PD-1 antibodies and PD-1 protein. Each purified chimeric anti-PD-1 antibody (1 μg/mL) was injected into the chip with a flow rate of 30 μL/min for 60 sec. […] The HBS-EP+buffer (GE Healthcare) was used as a buffer blank and diluent. The association constant (kₒₙ), dissociation constant (koff), and equilibrium constant (KD) values were calculated using Biacore T200 evaluation software (version 3.1) with a 1:1 Langmuir binding model curve fitting.

human PD-1 on PD-1-expressing Jurkat effector cells, sequence (Q15116 25-288): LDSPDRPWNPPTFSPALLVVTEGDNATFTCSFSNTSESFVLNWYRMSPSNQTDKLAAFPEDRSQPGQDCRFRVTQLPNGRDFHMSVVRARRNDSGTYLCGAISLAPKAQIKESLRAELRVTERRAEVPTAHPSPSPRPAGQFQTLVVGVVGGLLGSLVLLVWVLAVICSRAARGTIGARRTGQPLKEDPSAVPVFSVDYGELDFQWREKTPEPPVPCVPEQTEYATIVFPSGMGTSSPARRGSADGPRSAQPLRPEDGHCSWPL
T1 sequence (Q15116 25-167 limits assumed): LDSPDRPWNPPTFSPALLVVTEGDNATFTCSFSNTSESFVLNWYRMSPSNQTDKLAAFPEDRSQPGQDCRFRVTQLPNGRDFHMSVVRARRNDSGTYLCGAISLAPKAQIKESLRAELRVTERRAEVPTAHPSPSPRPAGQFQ

PD-1/PD-L1 blockade bioassay, IC50 [1]: 1.21 µg/mL
EC50 [2]: 0.0342 µg/mL
B1: mCUSB0136 (antibody, V domains shown)
VH: QVQLKESGPGLVAPSQSLSITCTVSGFSLTTYDIIWIRQSPGKGLEWLGVIWTGGDTNYNSAFMSRLSISKDNSKSQIFLKMNSLQTDDTAIYYCVRDWAYWGQGTLVTVST
VL: NIVLTQSPASLAVSLGQRATISCRASESVDNYGNSFIQWYQQKPGQPPKLLIYFASNLQSGVPARFSGSGSRTDFTLTIDPVEADDAATYYCHQNNEDPFTFGSGTKLEIK
notes: Mouse monoclonal antibody purified from hybridoma

Kd [3]: 28.9 pM
koff [3]: 7.39e-05 s⁻¹
kon [3]: 2.56e+06 M⁻¹ s⁻¹
B2: Modified Seq17 (modified zCUSB0136.8 antibody) (antibody, V domains shown)
VH: QVQLQESGPGLVKPSETLSLTCTVSGFSLTVYDIIWIRQSPGKGLEWLGVIWTGGDTTYNSAFMSRLTISKDTSKNQISLKMSSLTAADTAVYYCARDWAYWGQGTLVTVSS
VL: DIVLTQSPDSLAVSLGERATISCRASESVDNYGNSFIQWYQQKPGQPPKLLIYFASYLQSGVPDRFSGSGSGTDFTLTISSVQAEDVATYYCHQNNEDPFTFGGGTKLEIK

Kd [3]: 24.3 pM
koff [3]: 8.47e-05 s⁻¹
kon [3]: 3.49e+06 M⁻¹ s⁻¹
B3: Modified Seq13 (modified zCUSB0136.8 antibody) (antibody, V domains shown)
VH: B2 VH with V31T
VL: B2 VL

Kd [3]: 26.6 pM
koff [3]: 9.31e-05 s⁻¹
kon [3]: 3.5e+06 M⁻¹ s⁻¹
B4: Modified Seq16 (modified zCUSB0136.8 antibody) (antibody, V domains shown)
VH: B2 VH with V31T
VL: B2 VL

Kd [3]: 66.4 pM
koff [3]: 0.000145 s⁻¹
kon [3]: 2.18e+06 M⁻¹ s⁻¹
B5: Modified Seq25 (modified zCUSB0136.8 antibody) (antibody, V domains shown)
VH: B2 VH with V31T
VL: B2 VL with Y57H

Kd [4]: 20.8 pM
koff [4]: 9.31e-05 s⁻¹
kon [4]: 4.48e+06 M⁻¹ s⁻¹
B6: zCUSB0136.8-3 (antibody, V domains shown)
VH: B2 VH
VL: B2 VL
notes: also called CUSB0136-BMVH.3c with CUSB0136-BMVL.2b

Kd [3]: 57 pM
koff [3]: 0.000134 s⁻¹
kon [3]: 2.36e+06 M⁻¹ s⁻¹
B7: Modified Seq22 (modified zCUSB0136.8 antibody) (antibody, V domains shown)
VH: B2 VH with V31T
VL: B2 VL with Y32W, Y57N

Kd [4]: 23.7 pM
koff [4]: 0.000142 s⁻¹
kon [4]: 6e+06 M⁻¹ s⁻¹
B8: zCUSB0136.8-1 (antibody, V domains shown)
VH: B2 VH with V31T, T58W
VL: B2 VL with Y32W
notes: also called CUSB0136-BMVH.3a with CUSB0136-BMVL.2a

Kd [3]: 31.9 pM
koff [3]: 8.7e-05 s⁻¹
kon [3]: 2.73e+06 M⁻¹ s⁻¹
B9: Modified Seq20 (modified zCUSB0136.8 antibody) (antibody, V domains shown)
VH: B2 VH with A100I
VL: B2 VL with Y57H

Kd [4]: 15.9 pM
koff [4]: 7.02e-05 s⁻¹
kon [4]: 4.42e+06 M⁻¹ s⁻¹
B10: zCUSB0136.8-4 (antibody, V domains shown)
VH: B2 VH with A100M
VL: B2 VL
notes: also called CUSB0136-BMVH.3d with CUSB0136-BMVL.2b

Kd [4]: 15.5 pM
koff [4]: 7.27e-05 s⁻¹
kon [4]: 4.68e+06 M⁻¹ s⁻¹
B11: zCUSB0136.8-2 (antibody, V domains shown)
VH: B2 VH with A100I
VL: B2 VL
notes: also called CUSB0136-BMVH.3b with CUSB0136-BMVL.2b

Kd [3]: 61.8 pM
koff [3]: 0.000112 s⁻¹
kon [3]: 1.81e+06 M⁻¹ s⁻¹
B12: Modified Seq24 (modified zCUSB0136.8 antibody) (antibody, V domains shown)
VH: B2 VH
VL: B2 VL with Y57Q

Kd [3]: 31.5 pM
koff [3]: 7.97e-05 s⁻¹
kon [3]: 2.53e+06 M⁻¹ s⁻¹
B13: Modified Seq19 (modified zCUSB0136.8 antibody) (antibody, V domains shown)
VH: B2 VH with V31T
VL: B2 VL with Y32W, Y57N

Kd [3]: 41.2 pM
koff [3]: 0.000104 s⁻¹
kon [3]: 2.52e+06 M⁻¹ s⁻¹
B14: Modified Seq21 (modified zCUSB0136.8 antibody) (antibody, V domains shown)
VH: B2 VH with V31T
VL: B2 VL with Y32W, Y57N

Kd [3]: 58.2 pM
koff [3]: 0.000288 s⁻¹
kon [3]: 4.96e+06 M⁻¹ s⁻¹
B15: Modified Seq23 (modified zCUSB0136.8 antibody) (antibody, V domains shown)
VH: B2 VH with T58N
VL: B2 VL with Y32W

Kd [3]: 30.7 pM
koff [3]: 7.82e-05 s⁻¹
kon [3]: 2.54e+06 M⁻¹ s⁻¹
B16: Modified Seq18 (modified zCUSB0136.8 antibody) (antibody, V domains shown)
VH: B2 VH with V31T
VL: B2 VL with Y32W, Y57Q

PD-1/PD-L1 blockade bioassay, IC50 [1]: 0.843 µg/mL
EC50 [2]: 0.0494 µg/mL
B17: mCUSB0103 (antibody, V domains shown)
VH: DVKLVESGGGLVKPGGSLKLSCAASGFTFSSYTMSWVRQTPEKRLEWVAAISGGGSYTYYADSVKGRFTISRDNAKNTLSLQMSSLKSEDTAMYFCTSPYDFAMDYWGQGTSVTVSS
VL: DIQMTQTTSSLSASLGDRVTISCRASQDITNYLNWYQQKPDGSVKLLIYYTSRLHSGVPSRFRGSGSGTDYSLTISNLEQEDIATYFCQQGNTLPWTFGGGTKLEIK
notes: as for B1

PD-1/PD-L1 blockade bioassay, IC50 [1]: 0.846 µg/mL
EC50 [2]: 0.0442 µg/mL
B18: mCUSB0126 (antibody, V domains shown)
VH: VKLVESGGDLVKPGGSLKLSCAASGFPFSSYLMSWVRQTPEKRLEWVAAISGGGRDTYYPDNVKGRFTISRDNARNILYLQMSSLRSEDTAVYYCATRGSYAMDYWGQGTSVTVSS
VL: DIQMTQSPASQSASLGESVTITCLASQTIGTWLAWYQQKPGKSPQILIYAATNLADGVPSRFSGSGSGTKFSFKISSLQAEDFVSYYCQQLYSIPWTFGGGTKLEIK
notes: as for B1

PD-1/PD-L1 blockade bioassay, IC50 [1]: 6.58 µg/mL
EC50 [2]: 0.104 µg/mL
B19: mCUSB0124 (antibody, V domains shown)
VH: QIQLVQSGPELKKPGETVKISCKASGYIFTNYGVTWVKQTPGKGLKWMTWINTNTGEPTSAEEFKGRFDFSSETSATTAYLQINNLKNEDTATYFCVRIRENAMDYWGQGTSVTVSS
VL: B18 VL with I46L, N53R, D56V, S77R, I94T, W96F, G100S
notes: as for B1

PD-1/PD-L1 blockade bioassay, IC50 [1]: 1.83 µg/mL
EC50 [2]: 0.074 µg/mL
B20: mCUSB0129 (antibody, V domains shown)
VH: B18 VH with D9G, N62S, V92L, T97R
VL: B18 VL with A50D
notes: as for B1

PD-1/PD-L1 blockade bioassay, IC50 [1]: 2.43 µg/mL
EC50 [2]: 0.0701 µg/mL
B21: mCUSB0123 (antibody, V domains shown)
VH: QVQLQQSGPELVRPGESVKISCKGSGYTFTDYVMHWVKQSHAKSLEWIGVITIYNDITNYNQKFKGKATMTIDKSSSTAYMELARLTSEDSAIYYCAREGYDSYWYFDVWGAGTTVTVSS
VL: DVLMTQTPLSLPVSLGDQASISCRSSQTIVHSNGNTYLEWYLQKPGQSPKLLIYKVSNRFSGVPDRFSGSGSGTDFTLKISRVEAEDLGVYYCFQGSHLPYTFGGGTKLEIK
notes: as for B1

PD-1/PD-L1 blockade bioassay, IC50 [1]: 2.71 µg/mL
EC50 [2]: 0.109 µg/mL
B22: mCUSB0125 (antibody, V domains shown)
VH: DVQLRESGPGLVKPSQSLSLTCTVTGYSITSDYAWNWIRQFPGNKLEWMGYIYYSGTTSYNPSLKSRISITRDTSKNQFFLQLNSVTTEDTATYYCARNYGSAFYYFDYWGQGTTLTVSS
VL: DILMTQSPSSMSVSLGDTVTITCHASQGISSNIGWLQQKPGKSFKGLIYRGTNLEDGVPSRFSGSGSGADYSLTISSLESEDFADYYCVQYAQFPPTFGGGTKLEIK
notes: as for B1
